The values below come from patent publication US20190070251A1.

Assay [1] has as its target GPR54 G-Protein coupled receptor (cloned human GPR54) (human) (UniProt Q969F8). Kind of assay: cell-based or functional assay.
The target of assay [2] is human µ opioid receptor (human), P35372. Kind of assay: radioligand competition with [3H]naloxone (5 nM), membranes of CHO-K1 cells with recombinant human µ opioid receptor; Ki by Cheng-Prusoff. Background: In a radioligand displacement assay an active substance lowers the binding of a labelled ligand.
human µ opioid receptor (human), P35372, sequence (P35372 whole entry): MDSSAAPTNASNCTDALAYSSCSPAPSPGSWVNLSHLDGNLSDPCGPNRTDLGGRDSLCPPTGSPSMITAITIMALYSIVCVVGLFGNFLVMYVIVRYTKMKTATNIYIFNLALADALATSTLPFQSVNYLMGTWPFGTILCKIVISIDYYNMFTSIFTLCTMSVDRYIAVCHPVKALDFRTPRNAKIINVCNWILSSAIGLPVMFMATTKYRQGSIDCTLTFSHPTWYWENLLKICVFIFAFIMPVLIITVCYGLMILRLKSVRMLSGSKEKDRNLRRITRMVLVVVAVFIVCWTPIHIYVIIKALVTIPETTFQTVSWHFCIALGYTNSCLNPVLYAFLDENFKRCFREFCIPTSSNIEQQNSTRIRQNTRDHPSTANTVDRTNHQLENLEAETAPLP
Assay [3] has the same target. Described as above. The source holds these as a separate data set.
Assay [4] shares this target. Put plainly: radioligand competition with [3H]naloxone (5 nM), membranes of CHO-K1 cells with recombinant human µ opioid receptor; Ki by Cheng-Prusoff; sample pre-incubated 72 h at 37 C, pH 7.5.
Assay [5] shares this target. Put plainly: radioligand competition with [3H]naloxone (5 nM), membranes of CHO-K1 cells with recombinant human µ opioid receptor; Ki by Cheng-Prusoff; sample pre-incubated 72 h at 37 C, pH 7.5 (partly released biphalin).
For assay [6] the target is unchanged. Put plainly: radioligand competition with [3H]naloxone (5 nM), membranes of CHO-K1 cells with recombinant human µ opioid receptor; Ki by Cheng-Prusoff; sample diluted on the day of the assay (unreleased).
The target is the same in assay [7]. Put plainly: radioligand competition with [3H]naloxone (5 nM), membranes of CHO-K1 cells with recombinant human µ opioid receptor; Ki by Cheng-Prusoff; sample pre-incubated 20 h at 37 C, pH 7.5 (partly released biphalin).

B1: Kisspeptin-54 (peptide)
peptide: GTSLSPPPESSGSPQQPGLSAPHSRQIPAPQGAVLVQREKDLPNYNWNSFGLRF
modifications: C-terminal amide (-NH2)
With B1, in assay [1], the EC50 (nM) of agonist activation at GPR54 (FLIPR calcium flux) amounted to 190 nM and the Fold change compared to metastin amounted to 16 fold.
As a reminder, the Ki is a measure of affinity in units of concentration, obtained from inhibition or displacement. As to YAGF (modifications not checked) [Biphalin], the figures for the Ki in assay [2], in assay [3] and in assay [4] were 3.4 nM, 4.7 nM and 3.1 nM, respectively.
In the case of YAGF (modifications not checked) [Di-CAC-PEG2-FMOC-NHS-20K-biphalin], the inhibitory constant (Ki) was determined as 13.7 nM in assay [5] and 1120 nM in assay [6].
Consider LPNYNWNSFGLRF (C-terminal amide (-NH2)) [Kisspeptin-13], for which, in assay [1], the EC50 (nM) of agonist activation at GPR54 (FLIPR calcium flux) worked out at 11 nM and the Fold change compared to metastin came to 1 fold.
For YAGF (modifications not checked) [Di-C2-PEG2-FMOC-NHS-20K-biphalin], the values for the Ki in assay [7] and in assay [6] were 10.1 nM and 21.7 nM, respectively.
